In patent US20180194839A1 (Novartis, published 2018):

T1: recombinant human IL-17F (SEQ ID NO: 77) (human, UniProt Q96PD4 31-163)
T1 construct: homodimer; also called huIL-17F; rhuIL-17F
T1 sequence: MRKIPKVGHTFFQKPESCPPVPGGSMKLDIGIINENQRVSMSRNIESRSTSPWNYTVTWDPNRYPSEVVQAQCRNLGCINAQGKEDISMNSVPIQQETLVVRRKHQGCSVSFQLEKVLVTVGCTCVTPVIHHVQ

T2: recombinant cynomolgus IL-17A (SEQ ID NO: 79) (cynomolgus monkey, UniProt Q16552 24-155 (human entry), limits assumed)
T2 construct: also called cynoIL-17A; cyno IL-17A
T2 chain: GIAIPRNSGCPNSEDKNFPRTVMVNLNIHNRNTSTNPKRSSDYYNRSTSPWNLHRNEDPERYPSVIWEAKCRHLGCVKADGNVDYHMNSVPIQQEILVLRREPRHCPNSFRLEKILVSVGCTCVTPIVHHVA

T3: recombinant cynomolgus IL-17F (SEQ ID NO: 80) (cynomolgus monkey, UniProt Q96PD4 31-163 (human entry), limits assumed)
T3 construct: also called cynoIL-17F; cyno IL-17F
T3 chain: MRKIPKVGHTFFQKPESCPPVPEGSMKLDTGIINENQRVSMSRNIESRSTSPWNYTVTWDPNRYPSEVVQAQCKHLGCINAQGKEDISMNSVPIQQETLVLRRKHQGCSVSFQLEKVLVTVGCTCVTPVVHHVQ

T4: recombinant rat IL-17A (SEQ ID NO: 85) (rat, UniProt Q61453 18-150)
T4 construct: also called rratIL-17A; rIL-17A
T4 sequence: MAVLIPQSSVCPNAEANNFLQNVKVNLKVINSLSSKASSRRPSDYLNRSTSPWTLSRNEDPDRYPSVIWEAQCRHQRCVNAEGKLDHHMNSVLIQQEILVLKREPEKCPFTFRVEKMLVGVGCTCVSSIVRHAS

T5: recombinant human IL-17A (SEQ ID NO: 76) (human, UniProt Q16552 24-155, limits assumed)
T5 sequence: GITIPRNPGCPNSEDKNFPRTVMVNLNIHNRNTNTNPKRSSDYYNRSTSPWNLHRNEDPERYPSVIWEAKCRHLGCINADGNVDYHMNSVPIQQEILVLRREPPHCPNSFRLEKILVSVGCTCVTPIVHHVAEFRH

T6: recombinant human IL-17A/F heterodimer (human, UniProt Q16552 24-155; Q96PD4 31-163, limits assumed)
T6 sequence (looked up) 1: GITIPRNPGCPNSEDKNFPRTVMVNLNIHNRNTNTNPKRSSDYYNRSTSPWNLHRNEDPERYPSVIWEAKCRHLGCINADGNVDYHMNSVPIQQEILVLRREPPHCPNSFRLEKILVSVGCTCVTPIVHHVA
T6 sequence (looked up) 2: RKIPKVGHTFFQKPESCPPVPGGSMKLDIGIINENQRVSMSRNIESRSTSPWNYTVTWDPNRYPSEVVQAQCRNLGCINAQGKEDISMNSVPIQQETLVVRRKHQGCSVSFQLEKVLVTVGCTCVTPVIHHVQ

T7: recombinant human IL-12 (R&D Systems Cat#219-IL-005/CF) (human, UniProt P29459 23-219; P29460 23-328)
T7 construct: also called huIL-12
T7 sequence (looked up) 1: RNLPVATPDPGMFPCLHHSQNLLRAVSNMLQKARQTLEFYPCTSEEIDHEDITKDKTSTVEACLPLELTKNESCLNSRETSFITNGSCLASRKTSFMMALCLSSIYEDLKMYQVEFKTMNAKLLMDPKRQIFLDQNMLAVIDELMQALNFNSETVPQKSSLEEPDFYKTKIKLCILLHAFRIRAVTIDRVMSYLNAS
T7 sequence (looked up) 2: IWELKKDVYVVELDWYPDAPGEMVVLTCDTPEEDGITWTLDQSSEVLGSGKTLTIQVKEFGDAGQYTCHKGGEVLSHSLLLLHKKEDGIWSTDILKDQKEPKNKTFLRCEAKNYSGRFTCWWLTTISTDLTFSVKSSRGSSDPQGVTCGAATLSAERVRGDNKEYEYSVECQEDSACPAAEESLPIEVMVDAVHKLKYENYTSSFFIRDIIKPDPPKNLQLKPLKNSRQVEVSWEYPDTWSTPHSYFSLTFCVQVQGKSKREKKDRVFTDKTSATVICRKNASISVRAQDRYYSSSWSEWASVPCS

T8: recombinant mouse IL-17F (R&D Systems Cat#2057-IL/CF) (mouse, UniProt Q7TNI7 29-161)
T8 construct: also called mIL-17F
T8 sequence (looked up): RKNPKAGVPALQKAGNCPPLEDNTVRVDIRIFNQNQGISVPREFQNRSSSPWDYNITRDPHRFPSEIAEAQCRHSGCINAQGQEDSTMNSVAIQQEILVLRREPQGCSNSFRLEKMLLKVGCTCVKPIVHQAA

T9: recombinant human IL-3 (R&D Systems Cat#203-IL/CF) (human, UniProt P08700 20-152)
T9 construct: also called huIL-3
T9 sequence (looked up): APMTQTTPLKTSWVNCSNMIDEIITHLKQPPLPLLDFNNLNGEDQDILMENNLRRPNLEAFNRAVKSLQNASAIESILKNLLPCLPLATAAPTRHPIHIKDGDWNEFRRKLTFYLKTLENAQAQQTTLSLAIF

T10: human IL-17A (construct not stated) (human, UniProt Q16552 24-155, limits assumed)
T10 sequence: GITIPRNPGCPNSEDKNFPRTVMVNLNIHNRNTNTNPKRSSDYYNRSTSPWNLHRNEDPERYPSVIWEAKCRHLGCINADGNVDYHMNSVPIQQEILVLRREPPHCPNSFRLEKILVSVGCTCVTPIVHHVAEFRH


Key:
[1] = molecular target: T1, recombinant human IL-17F (SEQ ID NO: 77); test: ELISA, coated cytokine, Ab 10 µg/ml;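 also: antibodies incubated 3 h at room temperature on the coated wells, binding detected with alkaline phosphatase-conjugated anti-IgG secondary antibodies matching the species of each test antibody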
[2] = molecular target: T1, recombinant human IL-17F (SEQ ID NO: 77); test: ELISA, coated antigen, Ab 1 µg/ml
Experimental: (§1) A titration of the antibodies of interest on different antigens was carried out.
(§2) Plates were then washed 4 times with PBS/0.05% Tween 20 (Sigma Cat# P7949)/0.02% NaN₃.
(§3) Plates were then washed 4 times with PBS/0.05% Tween 20/0.02% NaN₃. Then, an alkaline phosphatase-conjugated goat anti-human IgG antibody (Sigma Cat# A9544) was added to the wells that received test antibody at a dilution of 1/20000 (100 μl/well) for 2 h 30 min at RT. To the wells, that received mouse mAb, an alkaline phosphatase-conjugated goat anti-mouse IgG antibody (Sigma Cat# A7434) was added at a dilution of 1/10000 (100 μl/well) for 2 h 30 min at RT. An alkaline phosphatase conjugated mouse anti goat IgG antibody (Sigma Cat# A8062) was added to the goat antibodies at a dilution of 1/50000 (100 μl/well) for 2 h 30 min at RT. Plates were then washed 4 times and 100 μl of the substrate (p-nitrophenyl phosphate tablets; Sigma; 5 mg Cat#N9389; 20 mg Cat#. N2765) dissolved in diethanolamine buffer pH 9.8, to give a final concentration of 1 mg/ml, were added to each well.

[3] = molecular target: T2, recombinant cynomolgus IL-17A (SEQ ID …); test: ELISA, coated antigen, Ab 1 µg/ml
Experimental: as §1, §2, §3

[4] = molecular target: T3, recombinant cynomolgus IL-17F (SEQ ID …); test: ELISA, coated antigen, Ab 1 µg/ml
Experimental: as §1, §2, §3

[5] = molecular target: T4, recombinant rat IL-17A (SEQ ID NO: 85); test: ELISA, coated antigen, Ab 1 µg/ml
Experimental: as §1, §2, §3

[6] = molecular target: T1, recombinant human IL-17F (SEQ ID NO: 77); test: cell-based or functional assay
[7] = molecular target: T5, recombinant human IL-17A (SEQ ID NO: 76); test: cell-based or functional assay
[8] = molecular target: T6, recombinant human IL-17A/F heterodimer; test: cell-based or functional assay
[9] = molecular target: T7, recombinant human IL-12 (R&D Systems …); test: ELISA, coated cytokine;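 also: antibodies incubated 3 h at room temperature on cytokine-coated plates, binding read out with alkaline phosphatase-conjugated anti-species IgG secondary antibodies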
Experimental: (§4) The antibodies of the disclosure were added at 10 μg/ml (100 μl/well) for 3 h at room temperature. […] They were added at 1 or 5 μg/ml, in PBS, 0.02% NaN₃ for 3 h at RT.
(§5) Plates were then washed 4 times with PBS/0.05% Tween 20/0.02% NaN₃. Then, an alkaline phosphatase-conjugated goat anti-human IgG antibody (Sigma Cat# A9544) was added to the wells with human antibodies at a dilution of 1/20000 (100 μl/well). An alkaline phosphatase-conjugated goat anti-mouse IgG antibody (Sigma Cat# A1047) was added to the wells with mouse antibodies at a dilution of 1/10000 (100 μl/well). An alkaline phosphatase-conjugated rabbit anti-goat IgG antibody (Sigma Cat# A7650) was added to the wells with goat antibodies at a dilution of 1/1000 (100 μl/well) and an alkaline phosphatase-conjugated rabbit anti rat-IgG antibody (Sigma Cat# A6066) was added to the wells with rat antibodies at a dilution of 1/20000 (100 μl/well).

[10] = molecular target: T8, recombinant mouse IL-17F (R&D Systems …); test: ELISA, coated cytokine;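 also: antibodies incubated 3 h at room temperature on cytokine-coated plates, binding read out with alkaline phosphatase-conjugated anti-species IgG secondary antibodies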
Experimental: as §4, §5

[11] = molecular target: T11, recombinant human IL-1β (Novartis) (human, UniProt P01584 117-269); test: ELISA, coated cytokine;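 also: antibodies incubated 3 h at room temperature on cytokine-coated plates, binding read out with alkaline phosphatase-conjugated anti-species IgG secondary antibodies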
T11 construct: also called huIL1β
Experimental: as §4, §5

[12] = molecular target: T9, recombinant human IL-3 (R&D Systems …); test: ELISA, coated cytokine;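 also: antibodies incubated 3 h at room temperature on cytokine-coated plates, binding read out with alkaline phosphatase-conjugated anti-species IgG secondary antibodies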
Experimental: as §4, §5

[13] = molecular target: T10, human IL-17A (construct not stated); test: cell-based or functional assay

Row | Binder | O.D. [1] [O.D.] | O.D. [2] [O.D.] | O.D. [3] [O.D.] | O.D. [4] [O.D.] | O.D. [5] [O.D.] | IC50, hu-GRO-alpha secretion by BJ cells; stimulus IL-17F (10 nM) + TNF-α (6 pM) [6] [nM] | IC50, hu-GRO-alpha secretion by BJ cells; stimulus IL-17F (30 nM) [6] [nM] | IC50, hu-GRO-alpha secretion by BJ cells; stimulus IL-17A (30 pM) + TNF-α (6 pM) [7] [nM] | IC50, hu-GRO-alpha secretion by BJ cells; stimulus IL-17A (1 nM) [7] [nM] | IC50, hu-GRO-alpha secretion by BJ cells; stimulus IL-17A/F (300 pM) + TNF-α (6 pM) [8] [nM] | IC50, hu-GRO-alpha secretion by BJ cells; stimulus IL-17A/F (3 nM) [8] [nM] | binding result [9] | binding result [10] | binding result [11] | binding result [12] | IC50, in vitro neutralization, Hu IL-6 sec [13] [nM] | IC50, in vitro neutralization, Hu IL-8 sec [13] [nM]
1 | XAB4 (antibody, human IgG1, kappa, V domains shown, also called MB435 N56Q) VH: EVQLVESGGDLVQPGGSLRLSCAASGFTFSSYWMSWVRQAPGKGLEWVANIKQDGSEKYYVDSVKGRFTISRDNAKNSLYLQMNSLRAEDTAVYYCARDRGSLYYWGQGTLVTVSS VL: AIQLTQSPSSLSASVGDRVTITCRPSQGINWELAWYQQKPGKAPKLLIYDASSLEQGVPSRFSGSGSGTDFTLTISSLQPEDFATYYCQQFNSYPLTFGGGTKVEIKR | 0.035 | 0.049 | 1.93 | 0.085 | 1.77 | > 3000 | > 3000 | 0.007 | 0.35 | 0.1 | 1.11 | no binding (tested: 10 µg/ml) | no binding (tested: 10 µg/ml) | no binding (tested: 10 µg/ml) | no binding (tested: 10 µg/ml) | – | –
2 | XAB1 (antibody, human IgG1, kappa, V domains shown, human IgG1/kappa monoclonal antibody; also called parental XAB1; XAB1 IgG) VH: EVQLVESGGDLVQPGGSLRLSCAASGFTFSSYWMSWVRQAPGKGLEWVANIKQDGSEKYYVDSVKGRFTISRDNAKNSLYLQMNSLRAEDTAVYYCARDRGSLYYWGQGTLVTVSS VL: AIQLTQSPSSLSASVGDRVTITCRPSQGIISALAWYQQKPGKAPKLLIYDASSLENGVPSRFSGSGSGTDFTLTISSLQPEDFATYYCQQFNSYPLTFGGGTKVEIKR | – | – | – | – | – | > 3000 | – | 0.72 | – | 6.22 | – | – | – | – | – | 4 | 3
